The nature of data set [1]: Feruloyl esterase activity of C. thermocellum enzymes, HPLC assay, FAXX as substrate. It counts as biochemical. The conditions noted are these: E. coli cell free extracts. As to the method: (§1) Unless otherwise noted, all C. thermocellum enzyme assays were performed at 60° C. in 50 mM Na-citrate buffer, pH 6.0. One unit of enzyme activity was defined as the amount of enzyme that released 1 μmol of product min-1, and specific activity is given in units per milligram of protein. Feruloyl esterase activity was measured using a modified version of the assay described by Borneman et al. [Borneman etal. (1990) Anal. Biochem. 190:129-133]. The appropriately diluted protein sample (25 l) was added to 400 μl of buffer plus 8 mM of substrate. Samples were incubated at 60° C. for 5 min. and the reaction was stopped by adding 25 μl of 20% formic acid. Release of ferulic acid was measured via HPLC using a mobile phase of 10 mM Na-formate pH 3 and 30% (vol/vol) methanol. For routine assays, FAXX and FAX3 purified from wheat bran were used as substrates [Borneman et al. (1990) supra]. Ethyl-ferulate and ethyl-p-coumarate esters were a gift from D. E. Akin (USDA, Athens, Ga.). The hydrolysis of these (10 mM) were determined similarly to that of FAXX, but the HPLC analyses were performed with 50% methanol. HPLC runs were with a Hewlett Packard 1100 Series instrument equipped with an autosampler and diode array detector. Ferulic acid and p-coumaric acid were used as standards. To determine the amount of feruloyl and p-coumaroyl groups released from plant cell walls, wheat bran and Coastal Bermuda grass were ground in a Wiley mill to pass through a 250 μm screen. Plant samples of ten milligram were incubated for one hour in 400 μl of 50 mM Na-citrate buffer pH, 6.0 plus 25 μl of enzyme. After the addition of 25 μl of 20% formic acid to stop the reaction, the samples were centrifuged at 16,000×g in a microfuge and then assayed for FA and pCA by HPLC.

A short description of data set [2]: Feruloyl esterase activity of C. thermocellum enzymes, HPLC assay, FAX3 as substrate. As to conditions: pH 6.0, 60° C. It counts as biochemical. The method, then:
as §1, with “To determine the amount of feruloyl and p-coumaroyl groups released from plant cell walls, wheat bran and Coastal Bermuda grass were ground in a Wiley mill to pass through a 250 μm screen. Plant samples of ten milligram were incubated for one hour in 400 μl of 50 mM Na-citrate buffer pH, 6.0 plus 25 μl of enzyme. After the addition of 25 μl of 20% formic acid to stop the reaction, the samples were centrifuged at 16,000×g in a microfuge and then assayed for FA and pCA by HPLC.” left out

Data set [3] can be described thus: Storage stability of purified XynZ-derived FAE at 4° C. It counts as physicochemical. The conditions noted are these: 4° C. in elution buffer (50 mM Tris pH 7.5, 5% glycerol). As to the method: Alternatively, the 100,000×g supernatant after the heat treatment was concentrated to a volume of 2 ml with a Centricon 10 concentrator (Amicon, Millipore, Bedford, Mass.) and then applied to a TSK3000SW column (Tosohaas) which was run with 50 mM Tris pH 7.5 and 5% glycerol as solvent.

Data set [4] in a line: Routine feruloyl esterase assay of purified recombinant XynZ polypeptides (purification tables). As to conditions: purified preparation after heat treatment and TSK 3000SW gel filtration. The class given is biochemical. The method, then:
as §1, with “To determine the amount of feruloyl and p-coumaroyl groups released from plant cell walls, wheat bran and Coastal Bermuda grass were ground in a Wiley mill to pass through a 250 μm screen. Plant samples of ten milligram were incubated for one hour in 400 μl of 50 mM Na-citrate buffer pH, 6.0 plus 25 μl of enzyme. After the addition of 25 μl of 20% formic acid to stop the reaction, the samples were centrifuged at 16,000×g in a microfuge and then assayed for FA and pCA by HPLC.” left out
(SEC sorts molecules by how far they enter the pores of the column.)

The nature of data set [5]: C. thermocellum enzyme stability experiments (heat incubation, residual activity). It counts as physicochemical. As to the method:
Purified enzyme at a concentration of 13 μg/nMl was placed in a water bath at the appropriate temperature and incubated at intervals of one hour. Enzyme aliquots (25 μl) were removed and assays were performed in triplicate using FAX3 as a substrate as described above. FAE/CBD was tested at temperatures of 500, 600, and 70° C. while FAE was tested at 70°, 80° and 90° C.

Data set [6] is described as follows: Cellulose binding of XynZ constructs. The conditions noted are these: purified from recombinant E. coli.

B1: FAE287: XynZ amino acids 20-307; lacks the CBD but contains the proline rich linker (protein, listed as Clostridium thermocellum)
chain: LVTISSTSAASLPTMPPSGYDQVRNGVPRGQVVNISYFSTATNSTRPARVYLPPGYSKDKKYSVLYLLHGIGGSENDWFEGGGRANVIADNLIAEGKIKPLIIVTPNTNAAGPGIADGYENFTKDLLNSLIPYIESNYSVYTDREHRAIAGLSMGGGQSFNIGLTNLDKFAYIGPISAAPNTYPNERLFPDGGKAAREKLKLLFIACGTNDSLIGFGQRVHEYCVANNINHVYWLIQGGGHDFNVWKPGLWNFLQMADEAGLTRDGNTPVPTPSPKPANTRIEAEDYD
Regarding B1, the “Feruloyl esterase activity (hydrolysis of FAXX) of construct expressed in E. coli” value (shortened to “Feruloyl esterase activity … in E. coli”) in data set [1] is listed as “exhibited feruloyl esterase activity”.

B2: FAE227: XynZ amino acids 20-247; expressed but inactive truncation (protein, listed as Clostridium thermocellum)
chain: LVTISSTSAASLPTMPPSGYDQVRNGVPRGQVVNISYFSTATNSTRPARVYLPPGYSKDKKYSVLYLLHGIGGSENDWFEGGGRANVIADNLIAEGKIKPLIIVTPNTNAAGPGIADGYENFTKDLLNSLIPYIESNYSVYTDREHRAIAGLSMGGGQSFNIGLTNLDKFAYIGPISAAPNTYPNERLFPDGGKAAREKLKLLFIACGTNDSLIGFGQRVHEYCVANN
Turning to B2, the “Feruloyl esterase activity … in E. coli” value in data set [1] was “inactive”.

B3: FAE: C. thermocellum XynZ amino acids 20-286 expressed in E. coli; feruloyl esterase domain without linker or CBD (protein, listed as Clostridium thermocellum)
chain: LVTISSTSAASLPTMPPSGYDQVRNGVPRGQVVNISYFSTATNSTRPARVYLPPGYSKDKKYSVLYLLHGIGGSENDWFEGGGRANVIADNLIAEGKIKPLIIVTPNTNAAGPGIADGYENFTKDLLNSLIPYIESNYSVYTDREHRAIAGLSMGGGQSFNIGLTNLDKFAYIGPISAAPNTYPNERLFPDGGKAAREKLKLLFIACGTNDSLIGFGQRVHEYCVANNINHVYWLIQGGGHDFNVWKPGLWNFLQMADEAGLTRDGN
For orientation: Km means the concentration of substrate that gives half-maximal velocity. Consider B3, for which the Km in data set [2] is 10.5 mM. Further, the Vmax in data set [2] is given as 28.2 μmol ferulic acid released min-1 mg-1. For the same molecule, the Storage stability result in data set [3] is “stable for at least a month”. For the same molecule, in data set [4], the “Specific Activity” value turned out to be 26.6 U/mg. Besides, the “Feruloyl esterase activity … in E. coli” value in data set [1] is given as “exhibited feruloyl esterase activity”; in data set [1] (listed as XynZ UD), “high levels of feruloyl esterase activity”. The “Relative activity after heat incubation” value in data set [5] (80° C., after three hours of incubation) is on record as “around 50%”; in data set [5] (90° C., after 1 hour of incubation), “most of the relative activity was destroyed”. In addition, the Thermal stability entry in data set [5] (temperatures up to 70° C. for 6 hours) is reported as “stable”. The “Removal of feruloyl esterase activity by Avicel and acid swollen cellulose adsorption (cellulose binding)” value in data set [6] was “not”.

The values above are taken from patent US6602700B1, “Phenolic acid esterases, coding sequences and methods” (University of Georgia Research Foundation, Inc., priority 1998, dated 2003).
